# Measurements: the supplement of paper PMC7877785
# ± gives the uncertainty stated by the source.
# Assay: self-splicing fitness, log relative to wild type (ln ratio); higher = more splicing; Tetrahymena group I intron in knt gene, E. coli kanamycin selection, DiMSum; sequences stand for … in CUCUCU…GGAGGGAAAAGUUAUCAGGCAUGCACCUGGUAGCUAGUCUUUAAACCAAUAGAUUGCAUCGGUUUAAAAGGCAAGACCGUCAAAUUGCGGGAAAGGGGUCAACAGCCGUUCAGUACCAAGUCUCAGGGGAAACUUUGAGAUGGCCUUGCAAAGGGUAUGGUAAUAAGCUGACGGACAUGGUCCUAACCACGCAGCCAAGUCCUAAGUCAACAGAUCUUCUGUUGAUAUGGAUGCAGUUCACAGACUAAAUGUCGGUCGGGGAAGAUGUAUUCUUCUCAUAAGAUAUAGUCGGACCUCUCCUUAAUGGGAGCUAGCGGAUGAAGUGAUGCAACACUGGAGCCGCUGGGAACUAAUUUGUAUGCGAAAGUAUAUUGAUUAGUUUUGGAGUACUCGUGGUCG
# Procedure, shortened: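 Pooled colonies went to amplicon sequencing on an Illumina HiSeq 2500 after six replicate transformations. The plates were LB agar with 100 μg/mL carbenicillin, 50 μM IPTG and 0.2% rhamnose, with or without 25 μg/mL kanamycin, incubated overnight at 37°C or 30°C. The E. coli BL21(DE3) library had all eight P1ex-region intron nucleotides randomised, the intron placed in the knt kanamycin-resistance gene on pET-22b(+). DiMSum fitness is the error-weighted combination of replicate fold changes, kanamycin against none, normalised to wild type.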
Sequence,self-splicing fitness (ln) (37 °C),self-splicing fitness (ln) (30 °C)
UAUUAGCAAUAUUACGAGAA,-2.92 ± 0.47,–
UAUUAGCAAUAUUACGAGCU,0.924 ± 0.21,-2.63 ± 0.26
UAUUAGCAAUAUUACGAGGA,-1.54 ± 0.18,-2.33 ± 0.19
UAUUAGCAAUAUUACGAGUG,0.196 ± 0.087,-0.139 ± 0.069
UAUUAGCAAUAUUACGAUCG,0.607 ± 0.18,-0.211 ± 0.12
UAUUAGCAAUAUUACGCAAA,-1.83 ± 0.27,-1.67 ± 0.3
UAUUAGCAAUAUUACGCAUG,-0.197 ± 0.11,-0.961 ± 0.081
UAUUAGCAAUAUUACGCCCA,-0.366 ± 0.3,-0.378 ± 0.23
UAUUAGCAAUAUUACGCGCG,-0.528 ± 0.17,-0.142 ± 0.17
UAUUAGCAAUAUUACGCGCU,-0.558 ± 0.18,-0.731 ± 0.15
UAUUAGCAAUAUUACGCUCG,0.237 ± 0.2,-0.476 ± 0.17
UAUUAGCAAUAUUACGGCCG,0.135 ± 0.31,-0.0472 ± 0.19
UAUUAGCAAUAUUACGGGCG,0.185 ± 0.083,-0.882 ± 0.076
UAUUAGCAAUAUUACGGUGA,-1.33 ± 0.11,-1.92 ± 0.12
UAUUAGCAAUAUUACGUACA,-0.493 ± 0.23,-0.773 ± 0.22
UAUUAGCAAUAUUACGUAGU,-2.47 ± 0.35,-2.56 ± 0.26
UAUUAGCAAUAUUACGUGAU,-1.99 ± 0.18,-2.82 ± 0.17
UAUUAGCAAUAUUACGUGGC,-1.84 ± 0.39,–
UAUUAGCAAUAUUACGUGUC,–,-3.34 ± 0.39
UCAAAGCAAUAUUACGAAAA,-2.95 ± 0.27,–
UCAAAGCAAUAUUACGAACG,-0.646 ± 0.11,-0.696 ± 0.076
UCAAAGCAAUAUUACGAAUG,-1.67 ± 0.25,-1.71 ± 0.11
UCAAAGCAAUAUUACGAGAC,-2.76 ± 0.22,-3.15 ± 0.17
UCAAAGCAAUAUUACGAGUG,-0.965 ± 0.067,-0.846 ± 0.048

Sequence,self-splicing fitness (ln) (37 °C),self-splicing fitness (ln) (30 °C)
UCAAAGCAAUAUUACGAUCU,-0.778 ± 0.12,-2.82 ± 0.13
UCAAAGCAAUAUUACGCAAG,-1.48 ± 0.15,-2.18 ± 0.14
UCAAAGCAAUAUUACGCAUC,-3.11 ± 0.31,-3.83 ± 0.19
UCAAAGCAAUAUUACGCAUU,-3.34 ± 0.37,-3.2 ± 0.4
UCAAAGCAAUAUUACGCCAC,-2.07 ± 0.38,-2.5 ± 0.24
UCAAAGCAAUAUUACGCCAG,-0.892 ± 0.18,-1.35 ± 0.13
UCAAAGCAAUAUUACGCCCG,-0.884 ± 0.27,-1.66 ± 0.2
UCAAAGCAAUAUUACGCCCU,-0.887 ± 0.18,-3.06 ± 0.44
UCAAAGCAAUAUUACGCGAA,-0.986 ± 0.12,-1.88 ± 0.11
UCAAAGCAAUAUUACGCGCU,-2.53 ± 0.45,-3.63 ± 0.47
UCAAAGCAAUAUUACGCGGA,-1.37 ± 0.11,-2.87 ± 0.13
UCAAAGCAAUAUUACGCUGC,-2.49 ± 0.33,-3.2 ± 0.43
UCAAAGCAAUAUUACGGCUG,0.231 ± 0.078,-0.827 ± 0.056
UCAAAGCAAUAUUACGGGAC,-1.75 ± 0.25,-1.98 ± 0.2
UCAAAGCAAUAUUACGGGCG,-0.266 ± 0.083,-0.842 ± 0.065
UCAAAGCAAUAUUACGGGGA,-0.383 ± 0.085,-0.69 ± 0.075
UCAAAGCAAUAUUACGUCUA,-0.787 ± 0.098,-1.92 ± 0.1
UCAAAGCAAUAUUACGUGAA,-1.06 ± 0.1,-1.42 ± 0.069
UCAAAGCAAUAUUACGUGGU,-2.19 ± 0.18,-4.25 ± 0.26
UCAAAGCAAUAUUACGUUUG,-1.82 ± 0.14,-3.43 ± 0.16
UCACAGCAAUAUUACGAAAG,-2.73 ± 0.23,-3.82 ± 0.25
UCACAGCAAUAUUACGAGCA,0.102 ± 0.089,-1.28 ± 0.081
UCACAGCAAUAUUACGAGCC,-2.3 ± 0.5,-2.07 ± 0.22
UCACAGCAAUAUUACGCAGA,-2.16 ± 0.14,-2.54 ± 0.12
